Experimental findings from patent publication US20250346669A1 (DEUTSCHES KREBSFORSCHUNGSZENTRUM STIFTUNG DES FFENTLICHEN …, published 2025) are described below.

For assay [1], the target named is T1, human prostate specific membrane antigen (PSMA) (human, UniProt Q04609 1-750).
T1 construct: whole, on cells; also called PMSA; FOLH1
Kind of assay: flow cytometry on PSMA-transfected Sp2/0 cells.
Description: Binding (FIG. 5A), lack of binding competition (FIG. 5B) and shift of the PSMA antigen upon antibody binding (FIG. 5C) was assessed by flow cytometry using PSMA-transfected Sp2/0 cells. To this end different α-PSMA antibodies were incubated with these cells in 96-well plates for 30-45 min at 4° C. Cells were then washed and incubated with a PE-conjugated goat-anti-mouse F(ab)₂ fragment (FIGS. 5A, 5C) (Jackson ImmunoResearch) or a PE-goat-anti-human FC-γ specific fragment (Jackson ImmunoResearch) (B). Cells were analyzed on a FACSCalibur (BD Biosciences). […] For the determination of antigen shift (FIG. 5C) PSMA expressing cells were incubated with the indicated antibodies at the beginning of the experiment and again after 24 hrs and before FACS analysis with a saturating amount (10 μg/ml) of the respective antibody. PSMA expression by untreated cells served as a reference (100% PSMA expression)

Assay [2] concerns the target T1, human prostate specific membrane …. The assay is described as follows: flow cytometry on PSMA-expressing 22RV1 cells. The method, then: To this end, the cells were incubated with the indicated antibodies in 96 well plates for 30-45 min at 4° C. Upon incubation cells were washed and incubated with a secondary PE-goat-anti-human FC-γ specific fragment (Jackson ImmunoResearch). Cells were analyzed on a FACSCalibur (BD Biosciences).

Assay [3] shares this target. Kind of assay: in vivo biodistribution of radioisotope labeled CC-1 in mice with 22Rv1 (PSMA positive) or DU145 (PSMA negative) tumors.

B1: murine antibody 10B3 (antibody, IgG2b, V domains shown)
VH: QVQLQESGGGLVKPGGSLKLSCAASGFTFSDFYMYWVRQTPEKRLEWVATISDGGGYTSYPDSVKGRFTISRDIAKNNLYLQMNSLKSEDTAKYYCARGLWLRDALDYWGQGTSVTVSS
VL: EIVLTQSPITMAAFLGERITITCSASSSISSNYLHWYQQKPGFSPKLLIYRTSNLASGVPIRFSGSGSGTSYSLTIGTMEAEDVATYYCQQGSYIPFTFGSGTKLEIKR
notes: Mouse hybridoma antibody, isotype IgG2b/kappa; also called mu 10B3; m10B3
For the molecule B1, the binding result in assay [1] is given as “binds”.

B2: PSMA (humanized h10B3) x CD3 (murine OKT3) bispecific Fabsc format antibody molecule (bispecific antibody, IgG1)
heavy: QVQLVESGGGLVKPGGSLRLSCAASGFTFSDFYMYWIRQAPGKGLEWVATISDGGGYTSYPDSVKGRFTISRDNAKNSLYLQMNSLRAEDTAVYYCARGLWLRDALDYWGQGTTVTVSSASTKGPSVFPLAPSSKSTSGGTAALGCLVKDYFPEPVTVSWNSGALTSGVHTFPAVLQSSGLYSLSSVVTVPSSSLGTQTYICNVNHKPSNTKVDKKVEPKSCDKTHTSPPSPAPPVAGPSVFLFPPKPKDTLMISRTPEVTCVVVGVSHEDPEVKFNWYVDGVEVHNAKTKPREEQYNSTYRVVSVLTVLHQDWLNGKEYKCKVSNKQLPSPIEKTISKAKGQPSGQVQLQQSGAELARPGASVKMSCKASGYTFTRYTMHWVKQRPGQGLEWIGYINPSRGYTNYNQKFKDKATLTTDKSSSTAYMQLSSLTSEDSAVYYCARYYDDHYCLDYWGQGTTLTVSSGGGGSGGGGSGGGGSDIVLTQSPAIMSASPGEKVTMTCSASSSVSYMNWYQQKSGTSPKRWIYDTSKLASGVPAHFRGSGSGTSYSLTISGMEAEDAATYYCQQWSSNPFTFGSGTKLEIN
light: EIVLTQSPATLSLSPGERATLSCSASSSISSNYLHWYQQKPGQAPRLLIYRTSNLASGIPARFSGSGSGTDYTLTISRLEPEDFAVYYCQQGSYIPFTFGQGTKLEIKRTVAAPSVFIFPPSDEQLKSGTASVVCLLNNFYPREAKVQWKVDNALQSGNSQESVTEQDSKDSTYSLSSTLTLSKADYEKHKVYACEVTHQGLSSPVTKSFNRGEC
notes: Heavy chain: h10B3 VH, IgG1 CH1, hinge, modified CH2, beginning of CH3, murine OKT3 scFv; also called h10B3xOKT3 Fabsc
In the case of B2, the binding result in assay [2] is “binds”.

B3: PSMA (humanized h10B3) x CD3 (humanized hUCHT1) bispecific IgGsc format antibody molecule (bispecific antibody)
heavy: QVQLVESGGGLVKPGGSLRLSCAASGFTFSDFYMYWIRQAPGKGLEWVATISDGGGYTSYPDSVKGRFTISRDNAKNSLYLQMNSLRAEDTAVYYCARGLWLRDALDYWGQGTTVTVSSASTKGPSVFPLAPSSKSTSGGTAALGCLVKDYFPEPVTVSWNSGALTSGVHTFPAVLQSSGLYSLSSVVTVPSSSLGTQTYICNVNHKPSNTKVDKKVEPKSCDKTHTCPPCPAPPVAGPSVFLFPPKPKDTLMISRTPEVTCVVVGVSHEDPEVKFNWYVDGVEVHNAKTKPREEQYNSTYRVVSVLTVLHQDWLNGKEYKCKVSNKQLPSPIEKTISKAKGQPREPQVYTLPPSRDELTKNQVSLTCLVKGFYPSDIAVEWESNGQPENNYKTTPPVLDSDGSFFLYSKLTVDKSRWQQGNVFSCSVMHEALHNHYTQKSLSLSPGKSGDIQMTQSPSSLSASVGDRVTITCRASQDIRNYLNWYQQKPGKAPKLLIYYTSRLESGVPSRFSGSGSGTDYTLTISSLQPEDFATYYCQQGNTLPWTFGQGTKVEIKGGGGSGGGGSGGGGSEVQLVESGGGLVQPGGSLRLSCAASGYSFTGYTMNWVRQAPGKGLEWVALINPYKGVSTYNQKFKDRFTISVDKSKNTAYLQMNSLRAEDTAVYYCARSGYYGDSDWYFDVWGQGTLVTVSS
light: B2 light
notes: also called CC-1; PSMAxCD3 (h10B3xUCHT1)-IgGsc
As for B3, the binding result in assay [3] was “binds”.
